Assay results: article PMC12489471, “A multi-dentate, cooperative interaction between endo- and exo-ribonucleases within the bacterial RNA degradosome” (Nucleic Acids Research, 2025)

System: PNPase core
Assay: Cryo-EM of E. coli PNPase core:RNase E complex
Type: binding
Details: 20 mM Tris–HCl pH 8.0, 25 mM MgCl2, 150 mM KCl, 1 mM TCEP
Method: The PNPase core encoding sequence from E. coli (aa 1–552), Salmonella enterica serovar Typhimurium (UniProt: Q8ZLT3) (aa 1–552), or Pseudomonas aeruginosa (strain PAO1, UniProt: Q9HV59) (aa 1–553) was amplified using corresponding genomic DNA as a template and cloned into pExp-Mxe-CHis expression vector. The protein of interest, produced as a fusion with C-terminal 8×His-tagged Mycobacterium xenopi GyrA intein, was expressed in Evo21(DE3) cells at 18°C overnight following induction with 0.4 mM IPTG. […] After cleavage, the protein buffer was exchanged using HiPrep 26/10 desalting column (Cytiva), and the protein solution was reapplied to Ni-NTA resin to remove His-tagged intein and uncleaved material. […]
Purified PNPase core and RNE-muGFP-CHis proteins were mixed in 1:2 ratio and their complex were separated on the Superdex 200 Increase 10/300 GL column (Cytiva) equilibrated with cryo-EM Buffer (20 mM Tris–HCl, pH 8.0, 25 mM MgCl2, 150 mM KCl, 1 mM TCEP). […] The samples were mixed with CHAPSO (3-([3-cholamidopropyl]dimethylammonio)-2-hydroxy-1-propanesulfonate) at a final concentration of 8 mM before being applied onto R2/2 Au Ultrafoil grids (Quantifoil) that had been pre-treated by glow-discharge (PELCO easiGLOW: 60 s, 25 mA, 0.39 mBar). […]

B1: RNase E 960 – 1061 wildtype: wildtype RNase E peptide 960–1061 (peptide)
chain: VVETAEVVVAEPEVVAQPAAPVVAEVAAEVETVAAVEPEVTVEHNHATAPMTRAPAPEYVPEAPRHSDWQRPTFAFEGKGAAGGHTATHHASAAPARPQPVE
modifications: left off: His6, N-terminal, cleaved | MBP, N-terminal, cleaved | intein, C-terminal, cleaved | choline-binding domain, C-terminal, cleaved
- binding mode / stoichiometry with E. coli PNPase core: interacting with two protomers of the trimeric PNPase core
